Article PMC2625445, “Mycobacterium tuberculosis Rv3802c Encodes a Phospholipase/Thioesterase and Is Inhibited by the Antimycobacterial Agent Tetrahydrolipstatin” (PLoS ONE, 2009)

Assays:
[1] = system: CCCCCCCCCC(=O)SCCNC(=O)CCNC(=O)[C@H](O)C(C)(C)COP(=O)(O)OP(=O)(O)OC[C@H]1O[C@@H](n2cnc3c(N)ncnc32)[C@H](O)[C@@H]1OP(=O)(O)O; test: purified protein
[2] = system: CCCCCCCCCCCCCCCC(=O)SCCNC(=O)CCNC(=O)[C@H](O)C(C)(C)COP(=O)(O)OP(=O)(O)OC[C@H]1O[C@@H](n2cnc3c(N)ncnc32)[C@H](O)[C@@H]1OP(=O)(O)O; test: purified protein
[3] = molecular target: T1, Rv3802 (Mycobacterium tuberculosis, UniProt O53581); test: […]; TLC of […]-palmitoyl-CoA hydrolysis; type: biochemical
T1 construct: gene cut6
T1 sequence (O53581 37-336): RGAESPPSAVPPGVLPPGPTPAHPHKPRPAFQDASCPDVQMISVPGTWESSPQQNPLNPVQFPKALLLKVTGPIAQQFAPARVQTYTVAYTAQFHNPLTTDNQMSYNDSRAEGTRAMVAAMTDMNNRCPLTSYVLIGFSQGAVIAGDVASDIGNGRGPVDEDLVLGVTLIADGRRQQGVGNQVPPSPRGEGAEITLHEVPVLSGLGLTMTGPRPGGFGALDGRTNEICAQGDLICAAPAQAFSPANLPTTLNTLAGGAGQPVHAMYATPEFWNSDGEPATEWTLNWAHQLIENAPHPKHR

Compound | Km [1] [µM] | kcat [1] [s⁻¹] | kcat/Km [1] [M⁻¹ s⁻¹] | Km [2] [µM] | Ki [3] [nM]
Rv3802 (Mycobacterium tuberculosis H37Rv) | 2280 | 0.0845 ± 0.0253 | 37 ± 11.1 | 17 | –
CCCCCCCCCCC[C@@H](C[C@@H]1OC(=O)[C@H]1CCCCCC)OC(=O)[C@H](CC(C)C)NC=O [THL, tetrahydrolipstatin] | – | – | – | – | 5
